Data: patent US5998583, “BH3 interacting domain death agonist” (Washington University, dated 1999)

Assays:
[1] = molecular target: human BCL-2 (in FL5.12-Bcl-2 cells) (human, UniProt P10415); assay: In Vitro and In Vivo BCL-2 Binding (summary: GST pull-down and anti-BID immunoprecipitation with anti-BCL-2 blot)
[2] = molecular target: BAX (in FL5.12-Bcl-2 cells) (murine, UniProt Q07813); assay: In Vitro and In Vivo BAX Binding (summary: GST pull-down and anti-BID immunoprecipitation with anti-BAX blot)

binding result [1] | binding result [2] | Binder
no binding | – | BIDmIII-1 (M97A,D98A) (other) MDSEVSNGSGLGAKHITDLLVFGFLQSSGCTRQELEVLGRELPVQAYWEADLEDELQTDGSQASRSFNQGRIEPDSESQEEIIHNIARHLAQIGDEAAHNIQPTLVRQLAAQFMNGSLSEEDKRNCLAKALDEVKTAFPRDMENDKAMLIMTMLLAKKVASHAPSLLRDVFHTTVNFINQNLFSYVRNLVRNEMD
– | no binding | BIDmIII-3 (G94A) (other) MDSEVSNGSGLGAKHITDLLVFGFLQSSGCTRQELEVLGRELPVQAYWEADLEDELQTDGSQASRSFNQGRIEPDSESQEEIIHNIARHLAQIADEMDHNIQPTLVRQLAAQFMNGSLSEEDKRNCLAKALDEVKTAFPRDMENDKAMLIMTMLLAKKVASHAPSLLRDVFHTTVNFINQNLFSYVRNLVRNEMD
